Holding throughout (test): cell-based or functional assay
Experiment [1] concerns the target T1, glucagon receptor (UniProt P47871 26-477, limits assumed).
In experiment [2] the target is T1, glucagon receptor. This is another data set of the same source.
For experiment [3], the target named is T2, GLP-1 receptor (UniProt P43220 24-463, limits assumed).
For experiment [4], the target named is T2, GLP-1 receptor. This is another data set of the same source.

Like-named read-outs stand apart in the source and are kept apart here. Starred links: 1 amine or outer side, 2 acyl side, 3 side chain; linkers in the order of their positions; H or OH if unused. Non-standard residues stand in square brackets, D forms with d. Groups on a side chain read outwards from the residue. No end group written: not given here. *: point of attachment. Orn(Ac) = acetylornithine, CC(=O)NCCC[C@H](N[*:1])C(=O)[*:2]; γGlu = O=C(O)[C@H](CCC(=O)[*:2])N[*:1]; Palmitoyl = CCCCCCCCCCCCCCCC(=O)*; Myristoyl = CCCCCCCCCCCCCC(=O)*; Nle = CCCC[C@H](N)C(=O)O; Dab = NCC[C@H](N)C(=O)O; Aib = CC(C)(N)C(=O)O; Ahx = NCCCCCC(=O)O; βAla = NCCC(=O)O

T1 sequence (P47871 26-477 limits assumed): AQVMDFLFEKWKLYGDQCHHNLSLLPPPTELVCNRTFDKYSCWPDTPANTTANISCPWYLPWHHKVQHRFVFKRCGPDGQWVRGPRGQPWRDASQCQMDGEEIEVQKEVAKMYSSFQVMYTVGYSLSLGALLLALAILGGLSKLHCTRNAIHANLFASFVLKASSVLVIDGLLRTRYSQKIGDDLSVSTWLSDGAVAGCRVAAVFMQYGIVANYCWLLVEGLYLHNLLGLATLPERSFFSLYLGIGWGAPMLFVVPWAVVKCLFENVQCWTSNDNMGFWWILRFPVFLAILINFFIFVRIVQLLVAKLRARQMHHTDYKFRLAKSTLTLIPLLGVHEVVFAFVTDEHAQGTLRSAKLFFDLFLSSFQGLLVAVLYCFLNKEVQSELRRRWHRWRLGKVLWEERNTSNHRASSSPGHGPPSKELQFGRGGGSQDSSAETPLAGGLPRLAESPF

The EC50 is the midpoint of the concentration-response curve. A lower EC50 goes with greater potency. Turning to HS[Dab](Ac)GTFTSDYSKYLD[Aib]RRAADFVAWLMDE [Peptide K backbone, Dab(Ac) at position 3 (SEQ ID NO: 601)], in the experiment with glucagon receptor [1], the “% activity” value was 86% and the EC50 was found to be 0.07 nM.

With H[Aib]QGTFTSDK([Ala-Ala-Palmitoyl])SKYLD[Aib]RRAQDFVQWLMNT-NH2 [Peptide 82 (SEQ ID NO: 564)], the figures for the EC50 with glucagon receptor [2] and with GLP-1 receptor [3] were 0.024 nM and 0.108 nM, respectively.

The molecule H[Aib]QGTFTSDK([Leu-Leu-Palmitoyl])SKYLD[Aib]RRAQDFVQWLMNT-NH2 [Peptide 86 (SEQ ID NO: 568)] came in with an EC50 with GLP-1 receptor [3] of 0.006 nM.

For H[Aib]QGTFTSDK([γGlu-γGlu-Myristoyl])SKYLD[Aib]RRAQDFVC(PEG 40 kDa)WLMNT-NH2 [Peptide 78* (SEQ ID NO: 571)], the results for the EC50 with glucagon receptor [2] and in the experiment with GLP-1 receptor [3] were 0.319 nM and 0.103 nM, respectively.

Take H[Aib]QGTFTSDK([Ahx-Palmitoyl])SKYLD[Aib]RRAQDFVQWLMNT-NH2 [Peptide 85 (SEQ ID NO: 567)]: the EC50 with glucagon receptor [2] is 0.01 nM; with GLP-1 receptor [3], 0.005 nM. As to H[Aib]QGTFTSDK([Ala-Ala-Myristoyl])SKYLD[Aib]RRAQDFVC(PEG 40 kDa)WLMNT-NH2 [Peptide 81* (SEQ ID NO: 573)], the EC50 with glucagon receptor [2] was determined as 0.597 nM; with GLP-1 receptor [3], 0.271 nM.

Regarding HS[Orn(Ac)]GTFTSDYSKYLDTRRAAEFVAWL[Nle]DE [Peptide J backbone, Orn(Ac) at position 3 (SEQ ID NO: 599)], in the experiment with glucagon receptor [1], the “% activity” value amounted to 7% and the midpoint of the response, the EC50, lay at 0.92 nM. With H[Aib]QGTFTSDK(Myristoyl)SKYLD[Aib]RRAQDFVC(PEG 40 kDa)WLMNT-NH2 [Peptide 77* (SEQ ID NO: 570)], the EC50 in the experiment with glucagon receptor [2] stood at 21.9 nM; in the experiment with GLP-1 receptor [3], 1.46 nM.

Take H[Aib]QGTFTSDK([Ala-Ala-Palmitoyl])SKYLD[Aib]RRAQDFVC(PEG 40 kDa)WLMNT-NH2 [Peptide 79* (SEQ ID NO: 575)]: in the experiment with glucagon receptor [2], the EC50 amounted to 0.102 nM. For H[Aib]QGTFTSDK([βAla-βAla-Palmitoyl])SKYLD[Aib]RRAQDFVQWLMNT-NH2 [Peptide 84 (SEQ ID NO: 566)], the half-maximal effective concentration (EC50) in the experiment with GLP-1 receptor [3] is 0.004 nM. Turning to H[Aib]QGTFTSDK([Pro-Pro-Palmitoyl])SKYLD[Aib]RRAQDFVQWLMNT-NH2 [Peptide 87 (SEQ ID NO: 569)], the values for the EC50 with glucagon receptor [2] and in the experiment with GLP-1 receptor [3] were 0.017 nM and 0.009 nM, respectively.

For HSQGTFTSDYSKYLDSRRAQDFVQWLMNGGPSSGAPPPS-NH2 [MNGG30 PSSGAPPPS (SEQ ID NO: 522)], in the experiment with GLP-1 receptor [4], the EC50 was found to be 0.31 nM and the “Relative Potency (%)” value was determined as 8%.

For HAEGTFTSDVSSYLEGQAAKEFIAWLVKGG-NH2 [GLP-1-VKGG30 (SEQ ID NO: 527)], in the experiment with GLP-1 receptor [4], it took 0.025 nM to reach a half-maximal effect (EC50) and the “Relative Potency (%)” value is 100%.

B1: Peptide 83 (SEQ ID NO: 565) (peptide)
peptide: H[Aib]QGTFTSDK([γGlu-γGlu-Palmitoyl])SKYLD[Aib]RRAQDFVQWLMNT-NH2
modifications: N-terminus assumed
SMILES: CCCCCCCCCCCCCCCC(=O)N[C@@H](CCC(=O)N[C@@H](CCC(=O)NCCCC[C@H](NC(=O)[C@H](CC(=O)O)NC(=O)[C@H](CO)NC(=O)[C@@H](NC(=O)[C@H](Cc1ccccc1)NC(=O)[C@@H](NC(=O)CNC(=O)[C@H](CCC(N)=O)NC(=O)C(C)(C)NC(=O)[C@@H](N)Cc1c[nH]cn1)[C@@H](C)O)[C@@H](C)O)C(=O)N[C@@H](CO)C(=O)N[C@@H](CCCCN)C(=O)N[C@@H](Cc1ccc(O)cc1)C(=O)N[C@@H](CC(C)C)C(=O)N[C@@H](CC(=O)O)C(=O)NC(C)(C)C(=O)N[C@@H](CCCNC(=N)N)C(=O)N[C@@H](CCCNC(=N)N)C(=O)N[C@@H](C)C(=O)N[C@@H](CCC(N)=O)C(=O)N[C@@H](CC(=O)O)C(=O)N[C@@H](Cc1ccccc1)C(=O)N[C@H](C(=O)N[C@@H](CCC(N)=O)C(=O)N[C@@H](Cc1c[nH]c2ccccc12)C(=O)N[C@@H](CC(C)C)C(=O)N[C@@H](CCSC)C(=O)N[C@@H](CC(N)=O)C(=O)N[C@H](C(N)=O)[C@@H](C)O)C(C)C)C(=O)O)C(=O)O
In the experiment with GLP-1 receptor [3], B1 returned a concentration giving a half-maximal response (EC50) of 0.043 nM. HSQGTFTSDYSKYLD[Aib]RRAADFVAWLMDE [Peptide K backbone, Q at position 3 (SEQ ID NO: 600)]: in the experiment with glucagon receptor [1], the “% activity” value stood at 15%.

The molecule HSQGTFTSDYSKYLDERRAKDFVQWLMDGGPSSGAPPPS-NH2 [E16K20-MDGG30 PSSGAPPPS (SEQ ID NO: 526)] registered an EC50 with GLP-1 receptor [4] of 0.02 nM. In the case of H[Aib]QGTFTSDK([γGlu-γGlu-Palmitoyl])SKYLD[Aib]RRAQDFVC(PEG 40 kDa)WLMNT-NH2 [Peptide 80* (SEQ ID NO: 576)], a half-maximal response with glucagon receptor [2] (EC50) required 0.108 nM.

B2: Peptide 26 (SEQ ID NO: 637) (peptide)
peptide: H[Aib]QGTFTSDYSKYLD[Aib]RRAQDFVQWLMNT-NH2
modifications: N-terminus assumed
SMILES: CSCC[C@H](NC(=O)[C@H](CC(C)C)NC(=O)[C@H](Cc1c[nH]c2ccccc12)NC(=O)[C@H](CCC(N)=O)NC(=O)[C@@H](NC(=O)[C@H](Cc1ccccc1)NC(=O)[C@H](CC(=O)O)NC(=O)[C@H](CCC(N)=O)NC(=O)[C@H](C)NC(=O)[C@H](CCCNC(=N)N)NC(=O)[C@H](CCCNC(=N)N)NC(=O)C(C)(C)NC(=O)[C@H](CC(=O)O)NC(=O)[C@H](CC(C)C)NC(=O)[C@H](Cc1ccc(O)cc1)NC(=O)[C@H](CCCCN)NC(=O)[C@H](CO)NC(=O)[C@H](Cc1ccc(O)cc1)NC(=O)[C@H](CC(=O)O)NC(=O)[C@H](CO)NC(=O)[C@@H](NC(=O)[C@H](Cc1ccccc1)NC(=O)[C@@H](NC(=O)CNC(=O)[C@H](CCC(N)=O)NC(=O)C(C)(C)NC(=O)[C@@H](N)Cc1c[nH]cn1)[C@@H](C)O)[C@@H](C)O)C(C)C)C(=O)N[C@@H](CC(N)=O)C(=O)N[C@H](C(N)=O)[C@@H](C)O
Take B2: the EC50 in the experiment with glucagon receptor [2] turned out to be 0.653 nM; with GLP-1 receptor [3], 0.475 nM.

These data come from patent US20120172295A1 (INDIANA UNIVERSITY RESEARCH AND TECHNOLOGY, published 2012).
